The record followed here is the RNAGym collection of RNA variant scans (doi:10.7554/elife.80360).

The labels stand for the following.
B1: Hammerhead Ribozyme (parent)
chain: ACCGGAUGUGCUUUCCGGUCUGAUGAGUCCGUGAGGACGAAACAG

This data set covers variants of B1. Kind of data set: self-cleavage, relative activity (ratio to wild type); higher = more cleavage; co-transcriptional.
In the case of ACCGGAUGUGCUUUCCGGUGUGAUGAGUCCGUGAGCACGAAACAG, the self-cleavage is 0.274.
ACCGGAUGUGCUUUCCGGUCUGAUGAGACCGUGAGGAAGAAACAG: the self-cleavage was found to be 0.726.
On to ACCGGAUGUACUUUCCGGUCUGAUGAGUCCGUGAGGACGAAAGAG, for which the self-cleavage came out at 0.406.
Regarding ACCGGAUCUGCUUUCCGGUCUGAUGAGUCCGUGAGGACGAAACUG, the self-cleavage turned out to be 0.56.
Then ACCGGGUGUGUUUUCCGGUCUGAUGAGUCCGUGAGGACGAAACAG, with 0.796; and ACCGGAUGUGCUUUCCGGUGUGAUGAGUCCGUGAGGACGAAACUG, with 0.309; and ACCGGAUGUGCUUUCCGGUCUGAUGAGUCGGUGAGGACGAAACCG, with 0.363.
For the variant ACCGGAUGUGCUUUGGGGUCUGAUGAGUCCGUGAGGACGAAACAG, the self-cleavage was found to be 0.384.
As to ACCGGAAGUGCUUUCCGGUCUGCUGAGUCCGUGAGGACGAAACAG, the self-cleavage worked out at 0.434.
As for ACCGGAUGUGCUUUCCGGUCUGAUGAAUCCGUCAGGACGAAACAG, the self-cleavage is 0.675.
The result for ACCGGAUGUGCUUUCCGGUCUGAUGCGUCCGUGAUGACGAAACAG reads 0.334; that for ACCGGACGUGCUUUCCGGUCUCAUGAGUCCGUGAGGACGAAACAG, 0.338.
As for ACCGGAUGUGCUUUCCGGUCUGAUGAUUCCGUGAGGACGAAUCAG, the self-cleavage came to 0.315.
Then ACGGGAUGUCCUUUCCGGUCUGAUGAGUCCGUGAGGACGAAACAG, with 0.52; and ACCGGAUGUGCUUUCCGGUCUGAUGAGUCCGGGAGGACGAAACAG, with 0.769.
Then ACCGGAUGUGCUUUCCGGUCAGAUGAGUCCGUGAGUACGAAACAG, with 0.418.
Turning to ACCGUAUGUGCUUUCCGGUCUGAUGAGUCCGUGAGGACGACACAG, the self-cleavage is 0.402.
The result for ACCGGAUGUGCUUUCCGAUCUGAUGAGUCUGUGAGGACGAAACAG reads 0.783; that for ACCGGAUGUGCUUUCCGAUCUGAUGAGUCCGUGAGGACGAAACCG, 0.479; that for ACCGGAUGUACUCUCCGGUCUGAUGAGUCCGUGAGGACGAAACAG, 1.39.
As for ACCGGAUGUGCUUUCUGGUCUGACGAGUCCGUGAGGACGAAACAG, the self-cleavage was found to be 1.12.
Then ACCGGAUGUGCUGGCCGGUCUGAUGAGUCCGUGAGGACGAAACAG, with 0.796; and ACCGGAUGUUCUUUCCGGUCUUAUGAGUCCGUGAGGACGAAACAG, with 0.351.
Then ACCGGGUGUGCUUUCCGGUCUGAUGAGUCCGUGAGGACGAAACAU, with 0.597; and ACCGGAUGUGCUGUCCGGUCUGAUGAGUCCGUGAGGACGAAACAA, with 0.719; and ACCGUUUGUGCUUUCCGGUCUGAUGAGUCCGUGAGGACGAAACAG, with 0.63.
Then ACCGGAGGUGCUUUCCGGUCUGAUGAGUCCGUGAGGACGAAUCAG, with 0.326; and ACCGGAUGUGCUUUCCGGUCUGAUGGGGCCGUGAGGACGAAACAG, with 0.335.
ACCGGAUGUGCUUUCCGGUCUGAUGAUUCCGUGAGGACGAAACAA: the self-cleavage was determined as 0.363.
ACCGGGUGUGCUUUCCAGUCUGAUGAGUCCGUGAGGACGAAACAG: the self-cleavage worked out at 0.389.
Then ACCGGAUGUGCUUCCCGGUCUGAUGAGUCCUUGAGGACGAAACAG, with 1.05.
Consider ACCGGAUGUGCUUUCCGGUCUGAGGAGUCCGUGAGGACUAAACAG, for which the self-cleavage came out at 0.303.
Then ACCGGAUGUGCUUGCCGGUCUGAUGAGUCCGUGAGGACGAAUCAG, with 0.268; and ACCGGCUGUGCUUUCCGGUCUGAUGAGUCCGUGAGGACGAAACUG, with 0.36; and ACCGGAUCUGCUUUCCGGUCUGAUGAGUCCGUGAGCACGAAACAG, with 0.791.
In the case of ACCGGAUGUGCUGUCAGGUCUGAUGAGUCCGUGAGGACGAAACAG, the self-cleavage is 0.765.
In the case of ACCGGAUGUGCUUUACGGUCUGAUGAGUCCGUGGGGACGAAACAG, the self-cleavage was found to be 0.96.
The result for ACCGGAUGUGCUUUGCGGUCUGAUGAGUCCGUUAGGACGAAACAG reads 1; that for ACGGGAUGUGCUUUCCGGUCAGAUGAGUCCGUGAGGACGAAACAG, 0.236; that for ACCGGAUGUGGUUUCCGGUCUGAUGAGUCCGUGAGUACGAAACAG, 0.69.
Regarding ACCGGAUGUGCUAUCCGGUCUGAUGAGUCCGUGAGGACAAAACAG, the self-cleavage is 0.317.
Then ACCGGAUGUGCUUUCCGGUAUGACGAGUCCGUGAGGACGAAACAG, with 0.368; and ACCGGAUGUGCUUUCCGGUCUGAUGUGUCCGUGAGGACGUAACAG, with 0.341.
With ACCGGAUGUGUUUUCCGGUCUGAUGAGCCCGUGAGGACGAAACAG, the self-cleavage worked out at 0.954.
The result for ACCGGAUGUGCUUUCCGGUCUGAGGAGUCCGUGAGGACGGAACAG reads 0.392.
Take ACCGGAUGUGCUUUCCGGUUUGAUGAGUCCGUGAGGACGACACAG: the self-cleavage came to 0.373.
The result for ACCGGAUGUGCUUUCAGGUCUGAUGAGUCCGUGAGGACGAAACUG reads 0.5; that for ACCGGAUGUGUUUUCCGGUCUGAUGAGUCCGUGAGGCCGAAACAG, 0.987.
The result for ACCGGAUGUGCUCUGCGGUCUGAUGAGUCCGUGAGGACGAAACAG reads 0.728.
The result for ACGGGAUGUGCUUUCGGGUCUGAUGAGUCCGUGAGGACGAAACAG reads 0.258; that for CCCGGAUGUGCUUUCCGGUAUGAUGAGUCCGUGAGGACGAAACAG, 0.349; that for ACCGGAUGUGAUUUCCGGUGUGAUGAGUCCGUGAGGACGAAACAG, 0.319.
In the case of ACCGGAUGUGCUGUCCGGUCUGAAGAGUCCGUGAGGACGAAACAG, the self-cleavage came to 1.36.
Then ACCGGAUGUGCUUUCCGGUCUGAUGGGUCCGUGAGGACGAAACUG, with 0.347; and ACCGGAUGUGCUUUCCGGCCUGAUGAGUACGUGAGGACGAAACAG, with 0.374; and ACCAGAUGUGCUUUCCGUUCUGAUGAGUCCGUGAGGACGAAACAG, with 0.323.
The result for ACCGGCUGUGCAUUCCGGUCUGAUGAGUCCGUGAGGACGAAACAG reads 0.826; that for ACCGGAUGUGCUUUGCGGUCUGAUGAGUCCGUGAGGACGAAAGAG, 0.327; that for ACCGGAGGUGCUUUCCGGUCUGAUGACUCCGUGAGGACGAAACAG, 0.763.
The result for ACCGGAUGUGCUUUCCGGUCUGACCAGUCCGUGAGGACGAAACAG reads 0.324; that for ACCGGAUGUGCUUUCCGGUCUGAUGAGUCCGUGAGGACCAAACCG, 0.437; that for ACCGGUUGUGCUUUCCGGUCUGAUGAGUCCGUGAGGACGAAAAAG, 0.326.
As for ACCGGUUGUGCUUUCCGGUCUGAUGAGUCCGUGAGCACGAAACAG, the self-cleavage was 0.334.
The result for ACCGGAAGUGCUUUCAGGUCUGAUGAGUCCGUGAGGACGAAACAG reads 1.29.
As for ACCGGAUGUGCUUUCCGGUCUGAUGAGUCCAUGAGGACGAAACAU, the self-cleavage turned out to be 0.805.
Take ACUGGAUGUGCUUUCCGGUCUGAUGUGUCCGUGAGGACGAAACAG: the self-cleavage was 0.624.
ACCGGAUGUGCUUUCCGGUCUUAUGAGUCCGUGAUGACGAAACAG: the self-cleavage worked out at 0.366.
The result for ACCGGGUGUGCUUUCCGGUCUGAUGAGGCCGUGAGGACGAAACAG reads 0.461; that for ACCGGAUGUGCUUUCCGGUCUGAUGAGUCCGUGAAGACGCAACAG, 0.435.
Then ACCGGAUGUGCUUUCCGGUCUGAUGAGUCGGUGAGGACGACACAG, with 0.368; and ACCGGAUCUGCUUUCCGGUCUGAUGAGUCCGUGAGGACUAAACAG, with 0.441.
The result for ACCGGAUGUGCUUUCCGGUCUGAUAAGUCCAUGAGGACGAAACAG reads 0.347; that for ACCGGAUGUGCUUUCCGGUCUGAAGAGUCCGUGAGGACGAGACAG, 0.473.
With ACCGGAUGUACUUUCCGGUCUGAUGAGUCCGUGAGGACGAGACAG, the self-cleavage is 0.359.
ACCGGAUGUGCUUUCCGGUCUGAUGAGUCCGUGAGGACGACACUG: the self-cleavage is 0.3.
Then ACCGGAUGUGCUAUCCGGUCUGAUGAGUUCGUGAGGACGAAACAG, with 0.941.
The result for ACCGGAUGUGCUUUACGGUCUGAUGAGUCCGUGAGGAAGAAACAG reads 0.501.
Then ACAGGAUGUGCUUUCCGGUCUGAUGAGUCCGUGAGGACGAAACGG, with 1.01; and ACCGGAUGUGCUUUGCGGUCUGAUGCGUCCGUGAGGACGAAACAG, with 0.321.
As to ACCUGAUGUGCUUUCCGGUCUGAUGAGGCCGUGAGGACGAAACAG, the self-cleavage is 0.308.
With ACCGGAUGUGCUUUCCGGUCUGAUGAGUGCGUGAGGCCGAAACAG, the self-cleavage worked out at 0.759.
With ACCGGAGGUGCUUUCCGGUCUGAUCAGUCCGUGAGGACGAAACAG, the self-cleavage was determined as 0.363.
Then ACCGGAUGUGCCUUCCGGUCUGAUGAGUACGUGAGGACGAAACAG, with 0.589; and ACCGGAUGUGCUUCCCGGUUUGAUGAGUCCGUGAGGACGAAACAG, with 0.457; and ACCGGAUGUGCUUUCCGGUUUGAUGAGACCGUGAGGACGAAACAG, with 0.621.
Consider ACCGGAUGUGCUUUCCGUCCUGAUGAGUCCGUGAGGACGAAACAG, for which the self-cleavage was 0.487.
The result for ACCGCUUGUGCUUUCCGGUCUGAUGAGUCCGUGAGGACGAAACAG reads 0.631; that for ACCGGAUGUGCUUUCCGGUCUGAUGAGUCCGUGAAGACGAAAGAG, 0.353; that for ACCGCAUGUGCUUUCCUGUCUGAUGAGUCCGUGAGGACGAAACAG, 0.381.
On to ACCGGAUGUGCUUUCCGCUCUAAUGAGUCCGUGAGGACGAAACAG, for which the self-cleavage was 0.342.
As for GCCGGAUGUGCUUUCCGGUCUGAUGAGUCCGUGAGGACGAAACUG, the self-cleavage stood at 0.968.
In the case of ACCGGAUGUGCCUUCCGGUCUGGUGAGUCCGUGAGGACGAAACAG, the self-cleavage stood at 0.37.
With ACCGCAUGUGCUUUCCGGUCUGAUGAGUCCCUGAGGACGAAACAG, the self-cleavage came to 0.613.
The result for ACCGGAUGUGCUUUCCGGUCUGAUGAAUCUGUGAGGACGAAACAG reads 0.69; that for ACCGGAUGUGCUUUCCGGUCUGAUGAAUCAGUGAGGACGAAACAG, 0.529; that for ACCAGAUGUGCUUUGCGGUCUGAUGAGUCCGUGAGGACGAAACAG, 0.419.
As for ACCUGAUGUGCUUUCCGGUAUGAUGAGUCCGUGAGGACGAAACAG, the self-cleavage came to 0.294.
With ACCGGAUGUGCUUUCCGGUCUGAUGAGUACAUGAGGACGAAACAG, the self-cleavage stood at 0.606.
As to ACCGGAUGUGCUUUCCGGUCAGAUGAGUCUGUGAGGACGAAACAG, the self-cleavage was determined as 0.57.
On to ACCGGAUGUGCUGUCCGGUCUGUUGAGUCCGUGAGGACGAAACAG, for which the self-cleavage was determined as 0.405.
Then ACCGGAUGUGCUUUCCGGUCUGAUGAGGCCGUGAGGAGGAAACAG, with 0.542; and ACCGGAUGUGCUUGCCGGUCUGAUGAGUCCGUGAGGACGAGACAG, with 0.3; and ACCGGAUGUGCUUUCCGGUCUGAUGAGUCCGUGAGGCCGAAACAG, with 1.
On to ACCGGAUGUGCUUUCCGGUCUGAUGAGUCCGUGAUGCCGAAACAG, for which the self-cleavage came out at 0.548.
The result for ACCGGAUGUUCUUUUCGGUCUGAUGAGUCCGUGAGGACGAAACAG reads 1.07.
Regarding ACCGGGUAUGCUUUCCGGUCUGAUGAGUCCGUGAGGACGAAACAG, the self-cleavage is 1.17.
Then ACCGGAUGUGCUUUCCGGUCGGAUAAGUCCGUGAGGACGAAACAG, with 0.349.
The result for ACCGGACGUGCUUUCCGGUCUGAUGAGUCCGUGAGGACAAAACAG reads 0.469; that for ACCGGAUGUUCUUUCCGGUCUGAUGAGUCCGUGAGGACGAGACAG, 0.372.
As to ACCGGAUGUGCUUACCGGUCUGAUAAGUCCGUGAGGACGAAACAG, the self-cleavage was 0.28.
Regarding ACCGGAUGUGCUUUCCGGUCUGAUGAGUCCGUGAGGACCAAAAAG, the self-cleavage was 0.336.
As to ACCGGAUGUGCUUCCCGGUCUGAUGAGUCCGGGAGGACGAAACAG, the self-cleavage was 0.546.
Then ACCGGAUGUGCUUUCCGGUCUGAUGAGUCCCUGAGGACGUAACAG, with 0.367; and GCCGGAUGUGCUUUCCGGUCUGAUGAGUCCGUGAGGACGCAACAG, with 0.691.
